T1: recombinant human TL1A (human, UniProt O95150 71-251)
T1 construct: homotrimer; biotinylated for SPR capture; the ELISA paragraphs say only 'recombinant TL1A'; also called TNFSF15
T1 chain: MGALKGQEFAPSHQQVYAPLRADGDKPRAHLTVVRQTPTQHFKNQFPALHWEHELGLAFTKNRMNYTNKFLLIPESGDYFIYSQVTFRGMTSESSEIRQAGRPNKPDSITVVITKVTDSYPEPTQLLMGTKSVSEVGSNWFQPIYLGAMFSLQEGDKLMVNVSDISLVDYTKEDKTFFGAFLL


Target: T1, recombinant human TL1A
Assay: competition ELISA vs bio-TL1A-0002
Method: For this competition ELISA assay procedure, 96-well high binding plates (Corning, product number 3590) were coated with 1 μg/mL recombinant TL1A in 100 μL/well in Phospate Buffered Saline (PBS) overnight at 4° C. Plates were then blocked in PBS+0.02% casein solution and washed with PBS+0.05% Tween-20 following standard ELISA protocol. […] Plates were washed with PBS+0.05% Tween-20 following standard ELISA protocol, and Streptavidin-HRP (Southern Biotech, product number 7100-05) diluted to 1:10,000 in assay buffer was added to plates and incubated for 25-30 minutes at room temperature. Next, the plates were washed with PBS+0.05% Tween-20 following standard ELISA protocol, and then TMB substrate (BioFX Laboratories, catalog number TMBW-0100-01) was added to plates. Reactions were stopped after approximately 5 minutes by adding 0.18 M ortho-phosphoric acid to each well and absorbance was read at 450 nm.

| Binder | Bioactivity relative to TL1A-0002 [fold] | IC50 [nM] |
| --- | --- | --- |
| TL1A-0088 (antibody, IgG1, V domains shown, IgG1/kappa variant of TL1A-0002) VH: QVQLVQSGAEVKKPGASVKVSCKASGYDFTYYGISWVRQAPGQGLEWMGWISTYGGNTHYAPSLQGRVTMTTDTSTRTAYMELRSLRSDDTAVYYCARENYYGSGAYRGGMDVWGQGTTVTVSS VL: EIVLTQSPATLSLSPGERATLSCRASQSVSSYLAWYQQKPGQAPRLLIYDASNRATGIPARFSGSGSGTDFTLTISSLEPEDFAVYYCQQRSNWPWTFGQGTKVEIKR | 1.4 | 6.5 |
| TL1A-0095 (antibody, IgG1, V domains shown, IgG1/kappa variant of TL1A-0002) VH: QVQLVQSGAEVKKPGASVKVSCKASGYDFTYYGISWVRQAPGQGLEWMGWISTYNGNTHYARMLQGRVTMTTDTSTRTAYMELRSLRSDDTAVYYCARETYYGSGAYRGGMDVWGQGTTVTVSS VL: EIVLTQSPATLSLSPGERATLSCRASQSVSSYLAWYQQKPGQAPRLLIYDASNRATGIPARFSGSGSGTDFTLTISSLEPEDFAVYYCQQRSNWPWTFGQGTKVEIKR | 2 | 8.8 |
| TL1A-0094 (antibody, IgG1, V domains shown, IgG1/kappa variant of TL1A-0002) VH: QVQLVQSGAEVKKPGASVKVSCKASGYDFTYYGISWVRQAPGQGLEWMGWISTYNGNTHYARMLQGRVTMTTDTSTRTAYMELRSLRSDDTAVYYCARESYYGSGAYRGGMDVWGQGTTVTVSS VL: EIVLTQSPATLSLSPGERATLSCRASQSVSSYLAWYQQKPGQAPRLLIYDASNRATGIPARFSGSGSGTDFTLTISSLEPEDFAVYYCQQRSNWPWTFGQGTKVEIKR | 1.2 | 5.5 |
| TL1A-0091 (antibody, IgG1, V domains shown, IgG1/kappa variant of TL1A-0002) VH: QVQLVQSGAEVKKPGASVKVSCKASGYDFTYYGISWVRQAPGQGLEWMGWISTYNTVTHYAQKLQGRVTMTTDTSTRTAYMELRSLRSDDTAVYYCARENYYGSGAYRGGMDVWGQGTTVTVSS VL: EIVLTQSPATLSLSPGERATLSCRASQSVSSYLAWYQQKPGQAPRLLIYDASNRATGIPARFSGSGSGTDFTLTISSLEPEDFAVYYCQQRSNWPWTFGQGTKVEIKR | 1.2 | 5.4 |
| TL1A-0092 (antibody, IgG1, V domains shown, IgG1/kappa variant of TL1A-0002) VH: QVQLVQSGAEVKKPGASVKVSCKASGYDFTYYGISWVRQAPGQGLEWMGWISTYNTVTHYAPSLQGRVTMTTDTSTRTAYMELRSLRSDDTAVYYCARENYYGSGAYRGGMDVWGQGTTVTVSS VL: EIVLTQSPATLSLSPGERATLSCRASQSVSSYLAWYQQKPGQAPRLLIYDASNRATGIPARFSGSGSGTDFTLTISSLEPEDFAVYYCQQRSNWPWTFGQGTKVEIKR | 1.2 | 5.2 |
| TL1A-0093 (antibody, IgG1, V domains shown, IgG1/kappa variant of TL1A-0002) VH: QVQLVQSGAEVKKPGASVKVSCKASGYDFTYYGISWVRQAPGQGLEWMGWISAYNANTHYAPSLQGRVTMTTDTSTRTAYMELRSLRSDDTAVYYCARENYYGSGAYRGGMDVWGQGTTVTVSS VL: EIVLTQSPATLSLSPGERATLSCRASQSVSSYLAWYQQKPGQAPRLLIYDASNRATGIPARFSGSGSGTDFTLTISSLEPEDFAVYYCQQRSNWPWTFGQGTKVEIKR | 1.3 | 5.9 |
| TL1A-0090 (antibody, IgG1, V domains shown, IgG1/kappa variant of TL1A-0002) VH: QVQLVQSGAEVKKPGASVKVSCKASGYDFTYYGISWVRQAPGQGLEWMGWISTYNTGTHYAPSLQGRVTMTTDTSTRTAYMELRSLRSDDTAVYYCARENYYGSGAYRGGMDVWGQGTTVTVSS VL: EIVLTQSPATLSLSPGERATLSCRASQSVSSYLAWYQQKPGQAPRLLIYDASNRATGIPARFSGSGSGTDFTLTISSLEPEDFAVYYCQQRSNWPWTFGQGTKVEIKR | 1 | 4.5 |
| TL1A-0096 (antibody, IgG1, V domains shown, IgG1/kappa variant of TL1A-0002) VH: QVQLVQSGAEVKKPGASVKVSCKASGYDFTYYGISWVRQAPGQGLEWMGWISTYNGNTHYARMLQGRVTMTTDTSTRTAYMELRSLRSDDTAVYYCAREVYYGSGAYRGGMDVWGQGTTVTVSS VL: EIVLTQSPATLSLSPGERATLSCRASQSVSSYLAWYQQKPGQAPRLLIYDASNRATGIPARFSGSGSGTDFTLTISSLEPEDFAVYYCQQRSNWPWTFGQGTKVEIKR | 2.3 | 10.3 |
| TL1A-0089 (antibody, IgG1, V domains shown, IgG1/kappa variant of TL1A-0002) VH: QVQLVQSGAEVKKPGASVKVSCKASGYDFTYYGISWVRQAPGQGLEWMGWISTYNTGTHYAQKLQGRVTMTTDTSTRTAYMELRSLRSDDTAVYYCARENYYGSGAYRGGMDVWGQGTTVTVSS VL: EIVLTQSPATLSLSPGERATLSCRASQSVSSYLAWYQQKPGQAPRLLIYDASNRATGIPARFSGSGSGTDFTLTISSLEPEDFAVYYCQQRSNWPWTFGQGTKVEIKR | 1.2 | 5.4 |
| TL1A-0097 (antibody, IgG1, V domains shown, IgG1/kappa variant of TL1A-0002) VH: QVQLVQSGAEVKKPGASVKVSCKASGYDFTYYGISWVRQAPGQGLEWMGWISTYNGNTHYARMLQGRVTMTTDTSTRTAYMELRSLRSDDTAVYYCAREQYYGSGAYRGGMDVWGQGTTVTVSS VL: EIVLTQSPATLSLSPGERATLSCRASQSVSSYLAWYQQKPGQAPRLLIYDASNRATGIPARFSGSGSGTDFTLTISSLEPEDFAVYYCQQRSNWPWTFGQGTKVEIKR | 2.2 | 10 |

Now from value to binder:

| Bioactivity relative to TL1A-0002 [fold] | IC50 [nM] | Binder |
| --- | --- | --- |
| 0.9 | 4.2 | TL1A-0167 (antibody, human IgG1, kappa, V domains shown, TL1A-0002 heavy chain with R(H76)S, TL1A-0002 light chain) VH: QVQLVQSGAEVKKPGASVKVSCKASGYDFTYYGISWVRQAPGQGLEWMGWISTYNGNTHYARMLQGRVTMTTDTSTSTAYMELRSLRSDDTAVYYCARENYYGSGAYRGGMDVWGQGTTVTVSS VL: EIVLTQSPATLSLSPGERATLSCRASQSVSSYLAWYQQKPGQAPRLLIYDASNRATGIPARFSGSGSGTDFTLTISSLEPEDFAVYYCQQRSNWPWTFGQGTKVEIKR |
| 2.7 | 12 | TL1A-0193 (antibody, IgG1, V domains shown, IgG1/kappa variant of TL1A-0002) VH: QVQLVQSGAEVKKPGASVKVSCKASGYDFTYYGISWVRQAPGQGLEWMGWISTYNGNTHYARMLQGRVTMTTDTSTRTAYMELRSLRSDDTAVYYCAREQYYGSGEYRGGMDVWGQGTTVTVSS VL: EIVLTQSPATLSLSPGERATLSCRASQSVSSYLAWYQQKPGQAPRLLIYDASNRATGIPARFSGSGSGTDFTLTISSLEPEDFAVYYCQQRSNWPWTFGQGTKVEIKR |
| 2 | 9.1 | TL1A-0160 (antibody, IgG1, V domains shown, IgG1/kappa variant of TL1A-0002) VH: QVQLVQSGAEVKKPGASVKVSCKASGYDFTYYGISWVRQAPGQGLEWMGWISTYNGNEHYAPSLQGRVTMTTDTSTRTAYMELRSLRSDDTAVYYCARENYYGSGLYRGGMDVWGQGTTVTVSS VL: EIVLTQSPATLSLSPGERATLSCRASQSVSSYLAWYQQKPGQAPRLLIYDASNRATGIPARFSGSGSGTDFTLTISSLEPEDFAVYYCQQRSNWPWTFGQGTKVEIKR |
| 1.6 | 7.2 | TL1A-0147 (antibody, IgG1, V domains shown, IgG1/kappa variant of TL1A-0002) VH: QVQLVQSGAEVKKPGASVKVSCKASGYDFTYYGISWVRQAPGQGLEWMGWISTYNGNEHYAQKLQGRVTMTTDTSTRTAYMELRSLRSDDTAVYYCARENYYGSGAYRGGMDVWGQGTTVTVSS VL: EIVLTQSPATLSLSPGERATLSCRASQSVSSYLAWYQQKPGQAPRLLIYDASNRATGIPARFSGSGSGTDFTLTISSLEPEDFAVYYCQQRSNWPWTFGQGTKVEIKR |
| 1.8 | 8.3 | TL1A-0194 (antibody, IgG1, V domains shown, IgG1/kappa variant of TL1A-0002) VH: QVQLVQSGAEVKKPGASVKVSCKASGYDFTYYGISWVRQAPGQGLEWMGWISTYNGNTHYARMLQGRVTMTTDTSTRTAYMELRSLRSDDTAVYYCAREQYYGSGAFRGGMDVWGQGTTVTVSS VL: EIVLTQSPATLSLSPGERATLSCRASQSVSSYLAWYQQKPGQAPRLLIYDASNRATGIPARFSGSGSGTDFTLTISSLEPEDFAVYYCQQRSNWPWTFGQGTKVEIKR |
| 2.7 | 11.9 | TL1A-0196 (antibody, IgG1, V domains shown, IgG1/kappa variant of TL1A-0002) VH: QVQLVQSGAEVKKPGASVKVSCKASGYDFTYYGISWVRQAPGQGLEWMGWISTYNGNTHYARMLQGRVTMTTDTSTRTAYMELRSLRSDDTAVYYCARESYYGSGEYRGGMDVWGQGTTVTVSS VL: EIVLTQSPATLSLSPGERATLSCRASQSVSSYLAWYQQKPGQAPRLLIYDASNRATGIPARFSGSGSGTDFTLTISSLEPEDFAVYYCQQRSNWPWTFGQGTKVEIKR |
| 1.5 | 6.6 | TL1A-0098 (antibody, IgG1, V domains shown, IgG1/kappa variant of TL1A-0002) VH: QVQLVQSGAEVKKPGASVKVSCKASGYDFTYYGISWVRQAPGQGLEWMGWISTYNGNTHYARMLQGRVTMTTDTSTRTAYMELRSLRSDDTAVYYCAREEYYGSGAYRGGMDVWGQGTTVTVSS VL: EIVLTQSPATLSLSPGERATLSCRASQSVSSYLAWYQQKPGQAPRLLIYDASNRATGIPARFSGSGSGTDFTLTISSLEPEDFAVYYCQQRSNWPWTFGQGTKVEIKR |
| 1.8 | 8.2 | TL1A-0195 (antibody, IgG1, V domains shown, IgG1/kappa variant of TL1A-0002) VH: QVQLVQSGAEVKKPGASVKVSCKASGYDFTYYGISWVRQAPGQGLEWMGWISTYNGNTHYARMLQGRVTMTTDTSTRTAYMELRSLRSDDTAVYYCAREQYYGSGAHRGGMDVWGQGTTVTVSS VL: EIVLTQSPATLSLSPGERATLSCRASQSVSSYLAWYQQKPGQAPRLLIYDASNRATGIPARFSGSGSGTDFTLTISSLEPEDFAVYYCQQRSNWPWTFGQGTKVEIKR |

Source: patent US20240059799A1 (Pfizer, published 2024)
